Non-standard residues stand in square brackets, D forms with d. No end group written: not given here. pS = N[C@@H](COP(=O)(O)O)C(=O)O
T1: human Scribble PDZ3 domain (1005-1094) (human, UniProt Q14160 1005-1094)
T1 sequence (looked up): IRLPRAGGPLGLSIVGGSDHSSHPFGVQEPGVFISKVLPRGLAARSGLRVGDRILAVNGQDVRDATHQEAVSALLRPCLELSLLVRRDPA


Columns and labels:
[1] = molecular target: human Scribble PDZ1 domain (728-815) (human, UniProt Q14160 728-815); test: ITC
[2] = molecular target: T1, human Scribble PDZ3 domain (1005-1094); test: ITC

Sequence of human Scribble PDZ1 domain (728-815) (Q14160 728-815): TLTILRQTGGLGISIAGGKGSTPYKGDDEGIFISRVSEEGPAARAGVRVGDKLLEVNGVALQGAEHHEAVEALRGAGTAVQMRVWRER

| Binder | Kd [1] | Kd [2] |
| --- | --- | --- |
| PHTNETSL [MCC 8-mer peptide spanning the C-terminus (PDZ-binding motif) of human MCC] | 7.7 µM | 5 µM |
| PHTNETEL [MCC_SE 8-mer peptide (Ser to Glu at position -1)] | 7.2 µM | 4.5 µM |
| PHTNETDL [MCC_SD 8-mer peptide (Ser to Asp at position -1)] | 7 µM | 3.4 µM |
| PHTNET[pS]L [phosphorylated MCC 8-mer peptide (phospho-Ser at position -1)] | 6.1 µM | 3.7 µM |

From publication doi:10.1101/501064 (bioRxiv, 2018)
